Experimental data taken from article PMC6003418.

Assays:
SnLH3 [1] = assay: SAXS
SnLH3 [2] = assay: native gel or EMSA

Work on SnLH3 (natural protein) yielded a stoichiometry N (SnLH3 [1]) of 3 and a stoichiometry N (SnLH3 [2]) of 3.
